From patent US7390635 (CANCER RESEARCH INSTITUTE OF CONTRA COSTA, dated 2008)

T1: BA46 antigen of the human milk fat globule (HMFG) (human, UniProt Q08431 24-387, limits assumed)
T1 construct: also called 46 kDa HMFG antigen; human milk fat globule preparation
T1 sequence (looked up): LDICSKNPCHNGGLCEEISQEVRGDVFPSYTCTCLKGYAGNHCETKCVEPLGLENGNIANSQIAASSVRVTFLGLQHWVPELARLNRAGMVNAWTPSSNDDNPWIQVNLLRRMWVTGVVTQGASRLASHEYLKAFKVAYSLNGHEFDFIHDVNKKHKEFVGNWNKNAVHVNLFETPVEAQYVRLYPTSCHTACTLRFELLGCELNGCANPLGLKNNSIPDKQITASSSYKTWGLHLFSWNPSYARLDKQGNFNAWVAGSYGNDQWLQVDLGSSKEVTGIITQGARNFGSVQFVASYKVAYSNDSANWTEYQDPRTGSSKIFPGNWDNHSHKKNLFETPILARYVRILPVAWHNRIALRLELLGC

B1: humanized Mc3 antibody (HuMc3) (antibody, human IgG1, V domains shown)
VH: EVQLVQSGAEVKKPGASVKVSCKASGYSFTGYTMHWVKQSPGMNLEWIGLINPYNGGTVYNQKFQDKATLTVDKSTSTAYMELSSLRSEDTAVYFCARRWRYTMDYWGQGTLVTVSS
VL: DIVMTQSPDSLAVSLGERATITCKASQDVSIGVAWYQQKPGQSPKLLIYSASSRYTGVPDRFSGSGSGTDFTLTISSLQAEDVAVYYCQQHYTSPFTFGSGTKVEIK
notes: Humanized variable regions cloned into pAH4604 (human gamma 1 constant region) and pAG4622 (human kappa constant region), so a human IgG1 kappa; also called HuMc3v2
B2: murine-human chimeric Mc3 antibody (ChMc3) (antibody, V domains shown)
VH: EVQLQQSGPELVKPGASMKISCEASGYSFTGYTMHWVKQSHGMNLEWIGLINPYNGGTVYNQKFQDKATLTVDKSSGTAYMELLSLTSEDSAVYFCARRWRYTMDYWGQGTSVTVSS
VL: DIVMTQSHKFMSTSEGDWVSITCKASQDVSIGVAWYQQKPGQSPKLLIYSASSRYTGVPDRFSGSGSGTDFTFTISSVQAEDLAVYYCQQHYTSPFTFGSGTNLEIK
notes: also called Chimeric antibody
B3: murine monoclonal antibody Mc3 (antibody, V domains shown)
VH: B2 VH
VL: B2 VL
notes: Whole murine monoclonal antibody from the Mc3 hybridoma, kappa light chain; As the tracer it was labelled with 125I by the chloramine T method; also called MuMc3; Mc3 murine antibody

Legend:
[1] = target: T1, BA46 antigen of the human milk fat …; assay: competition RIA on plate-bound delipidated HMFG, each antibody tested against itself; reciprocal of the concentration giving 50% maximal binding
Protocol: (§1) Binding studies were conducted as outlined earlier. Briefly, microliter plates were prepared using successive layers of methylated BSA (bovine serum albumin), glutaraldehyde, and a preparation of delipidated HMFG (Ceriani R. L. et al. (1977) PNAS (USA) 74:582-586). Each well was coated with 100 ng of HMFG. Competition experiments were conducted by adding to each well a standard amount of ^125I-MuMc3 and an appropriate dilution of unlabeled MuMc3 or HuMc3 in RIA buffer (10% bovine calf serum, 0.3 TRITON X-100™), 0.05% sodium azide pH 7.4, in PBS). For the determination of affinity constants, each antibody was tested in competition against itself.

[2] = target: T1, BA46 antigen of the human milk fat …; assay: affinity as summarised in the description; same assay as Example 10
Protocol: as §1

[3] = target: T1, BA46 antigen of the human milk fat …; assay: competition RIA on plate-bound HMFG; reciprocal of the concentration of unlabeled antibody giving 50% binding
Protocol: The protocol for the assay was as follows.
Microtiter plates (Dynatech, Chantilly, Va.) were prepared with HMFG according to standard techniques (as described by Ceriani et al., in "Monoclonal Antibodies and Functional Cell Lines" (T. J. McKern et al. eds.), pp. 398-402, New York, Plenum Press, 1984). To each well was added 25 µl ^125I-Mc3 in RIA buffer (10% bovine calf serum, 0.3% TRITON™ X-100, 0.05% sodium azide pH 7.4, in phosphate buffered saline), and competed with 25 µl of either unlabeled murine antibody or murine-human chimeric antibody in RIA buffer at final concentrations in the nanomolar range.
Iodinations were performed with ^125I (17 Ci/mg, Nordion International Inc., Kanata, Ontario, Canada). 50 µg monoclonal antibody Mc3 was labeled (at a specific activity of ~10 mCi/mg) using the chloramine T method as described by Ceriani, R. L., and Blank, E. W. (1988) *Cancer Res.* 48: 4664-4672.

Binder | Ka [1] | Ka [2] | Ka [3]
B1 | 6e+08 M⁻¹ | 6.2e+08 M⁻¹ | 
B2 |  |  | 5e+08 M⁻¹
B3 |  |  | 3e+08 M⁻¹
